Target: murine DNGR-1 (CLEC9A) expressed in B3Z NFAT reporter cells with SYK (mouse) (UniProt Q8BRU4)
UniProt Q8BRU4, sequence (Q8BRU4 whole entry): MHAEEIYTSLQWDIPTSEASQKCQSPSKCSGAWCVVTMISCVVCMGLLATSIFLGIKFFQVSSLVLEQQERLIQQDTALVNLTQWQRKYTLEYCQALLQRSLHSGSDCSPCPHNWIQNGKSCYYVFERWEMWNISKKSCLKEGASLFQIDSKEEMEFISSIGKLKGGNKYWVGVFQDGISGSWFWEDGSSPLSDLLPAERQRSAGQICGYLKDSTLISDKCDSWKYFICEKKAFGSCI

DNGR-1 ligand (DNGR-1L), F-actin-myosin II complexes (from UniProt P68135 1-377)
β-galactosidase (NFAT-LacZ) reporter activity of B3Z cells expressing DNGR-1 and SYK, stimulated with DNGR-1L, dose-dependent; EC50: 5 nM
